According to paper PMC11367474, “Two-metal ion mechanism of DNA cleavage by activated, filamentous SgrAI”:
Residue numbers refer to the chain shown, from its start.

Tests used:
SgrAI WT = target: T1, SgrAI WT (UniProt Q9F6L0 1-339); experiment: cryo-EM structure (3.1 A); Mg2+ in sites A and B; filament; DNA cleaved at the scissile phosphate during 1.5 h incubation (product complex); Cryo-EM samples: buffer containing MgCl2, room temperature (30 min for K242A, 1.5 h for WT); full buffer, salt and pH not in the material; conditions: protein: recombinant; tags: His tag implied (HisTrap purification); chain copies: 2; blunt
T1 sequence: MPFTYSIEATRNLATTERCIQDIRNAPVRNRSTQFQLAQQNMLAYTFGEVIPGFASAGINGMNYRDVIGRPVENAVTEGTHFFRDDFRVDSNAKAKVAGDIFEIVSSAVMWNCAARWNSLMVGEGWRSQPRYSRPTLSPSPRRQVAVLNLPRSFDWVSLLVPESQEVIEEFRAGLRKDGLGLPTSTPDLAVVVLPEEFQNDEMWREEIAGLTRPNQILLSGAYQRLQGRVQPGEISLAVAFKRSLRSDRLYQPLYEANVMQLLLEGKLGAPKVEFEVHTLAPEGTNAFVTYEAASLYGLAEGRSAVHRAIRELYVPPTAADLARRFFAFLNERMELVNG

SgrAI K242A = target: T2, SgrAI K242A (UniProt Q9F6L0 1-339, K242A;L336K); experiment: cryo-EM structure (3.3 A); Mg2+ in sites A and B; filament; DNA uncleaved; 30 min at room temperature; Cryo-EM samples: buffer containing MgCl2, room temperature (30 min for K242A, 1.5 h for WT); full buffer, salt and pH not in the material; conditions: protein: recombinant; tags: His tag implied (HisTrap purification); chain copies: 2; blunt
T2 sequence: T1 sequence with K242A, L336K

B1: 40-1 (dsDNA)
DNA 1: GATGCGTGGGTCTTCACACCGGTGGATGCGTGGGTCTTCA
DNA 2: TGAAGACCCACGCATCCACCGGTGTGAAGACCCACGCATC
B1: binds (SgrAI WT); binds (SgrAI K242A).
